According to patent US20150152165:

B1: Human Leukocyte Elastase (protein)
chain: IVGGRRARPHAWPFMVSLQLRGGHFCGATLIAPNFVMSAAHCVANVNVRAVRVVLGAHNLSRREPTRQVFAVQRIFENGYDPVNLLNDIVILQLNGSATINANVQVAQLPAQGRRLGNGVQCLAMGWGLLGRNRGIASVLQELNVTVVTSLCRRSNVCTLVRGRQAGVCFGDSGSPLVCNGLIHGIASFVRGGCASGLYPDAFAPVAQFVNWIDSIIQ

What was measured:
SELP815K 6-mer [1] = test system: SELP815K 6-mer
SELP815K 6-mer [2] = target: SELP815K 6-mer; remark: listed apart in the source

Molecule | SDS-PAGE analysis of enzymatic digestion (SELP815K-MMPRS 6-mer) | higher protein loss from hydrogel compared to control (2 weeks, 10 nM MMP) (SELP815K-MMPRS 6-mer) | increase of nanoparticle release compared to control (SELP815K-MMPRS 6-mer) | percentage of total polymer per hydrogel lost (control about 24%) (SELP815K-MMPRS 6-mer) | total release of 100 nm fluorescent nanoparticles from hydrogel at two weeks (no treatment 8.2%) (SELP815K-MMPRS 6-mer) | SDS-PAGE analysis of enzymatic digestion (SELP815K 6-mer [1]) | Young's modulus of hydrogel (SELP815K 6-mer [1]) | protein loss from hydrogel in the presence of MMPs (SELP815K 6-mer [1]) | total release of 100 nm fluorescent nanoparticles from hydrogel at two weeks (no treatment 9.3%) (SELP815K 6-mer [1]) | loss in Young's modulus of hydrogel (SELP815K-MMPRS 6-mer) | soluble fraction release from hydrogel (elastase degradation) (SELP815K 6-mer [2]) | soluble fraction release from hydrogel (elastase degradation) (SELP47K) | soluble fraction release from hydrogel (elastase degradation) (SELP415K)
MMP-2 | SELP815K-MMPRS is digested by MMP-2 and MMP-9 | 63% and 44% higher protein loss compared to control | increases of 65% and 95% compared to control | enzymatic digestion increasing this percentage to 39% and 35% for MMP-2 and MMP-9-induced degradation, respectively | treatment with MMP-2 and MMP-9 caused release of 13.5% and 16% respectively | SELP815K without the responsive sequence is not | there was no significant effect present in the standard SELP-815K polymer | SELP815K displayed statistically insignificant levels of increased protein loss in the presence of MMPs | MMP-2 and MMP-9 treatment conditions yielded release of 12.1% and 9.4%, respectively |  |  |  | 
MMP-9 | SELP815K-MMPRS is digested by MMP-2 and MMP-9 | 63% and 44% higher protein loss compared to control | increases of 65% and 95% compared to control | enzymatic digestion increasing this percentage to 39% and 35% for MMP-2 and MMP-9-induced degradation, respectively | treatment with MMP-2 and MMP-9 caused release of 13.5% and 16% respectively | SELP815K without the responsive sequence is not | there was no significant effect present in the standard SELP-815K polymer | SELP815K displayed statistically insignificant levels of increased protein loss in the presence of MMPs | MMP-2 and MMP-9 treatment conditions yielded release of 12.1% and 9.4%, respectively | MMP-9 affected a 24% loss |  |  | 
B1 |  |  |  |  |  |  |  |  |  |  | SELP815K shows the lowest sensitivity to degradation | SELP815K at 8 wt % is more resistant to degradation than SELP47K and SELP415K at 12 wt % | SELP415K appears to be the most sensitive to elastase degradation
